{"source": "the DeepSol protein solubility set", "data": [{"assay": "soluble on expression in E. coli; label from the status in PepcDB or PDB records", "values": [{"sequence": "MAGLFDKQADLYLDARPNYPSEWFSKLADLTDHHGLAWDAATGNGQAALAVAEHYESVVATDVSESQLKLATPHPKINYRHTPTSMTDDELVELIGGENSVDLITVAQGVHWFDLPRFYSVATRLLRKPGGIIAVWGYNDVIVSPEFDAVQYRLHATTLPFWKYPYIQHIFDSYEALPFPFENVGMGSEGEPLKLEMPKTTSFEGIIRMFKSWSAIVTAREKGVELLPESLVRELETAWGGSDLVRSVVYKAFMIAGKVRV", "soluble on expression in E. coli": "soluble"}, {"sequence": "MAGLIPQSFIDDLLNRTDIVEVVSSRIQLKKTGKNYSACCPFHKEKTPSFTVSPDKQFYYCFGCGAGGNALGFVMDHDQLEFPQAVEELAKRAGMDVPREERGGRGHTPRQPTDSPLYPLLSAAAEFYKQALKSHPARKAAVNYLKGRGLTGEIARDFGLGFAPPGWDNLLKHLGGDNLQLKAMLDAGLLVENSDTGKRYDRFRDRVMFPIRDSRGRIIAFGGRVLGDDKPKYLNSPETPVFHKGQELYGLYEARQKNRDLDEIMVVEGYMDVIALAQQGIRNAVATLGTATSEEHIKRLFRLVPSILFCFDGDQAGRKAAWRALESVLPNLQDGKRVRFLFLPEGEDPDSLVRAEGEDAFRARITQQAQPLAEYFFQQLMLEADPATLEGKAHLATLAAPLLEKIPGNNLRLLMRQRLSEITGLSGENIGQLAHHSPPPSSMDHGASGVLDGDDYFAASAYYENEPSHAPFDAAPGYVEAQPRKSWNKDKKPWDGKKWDGKKKWDKGGRGDFKAPQRTPVSVESTTLNALRTLLHHPQLALKVDDAGTLAREQDTYAQLLVSLLEALQKNPRQSSMQLIARWHGTPQGRLLQALGEKEWLIVQENLEKQFFDTITKLSESQRFGEREERLRSVMQKSYSELTDEEKALLREHYSVAASSP", "soluble on expression in E. coli": "not soluble"}, {"sequence": "MAGQIETRQFRTLFISDVHLGSKAAKTDFLLDFLKYHEAETIIMVGDIVDGWRLRRSWYWPQGCNDVVQKLLRKARKGTRIVYIPGNHDEFLREFPGMHFGGIEVAERMIHEAADGKKYLVIHGDEFDVVVRNARLLAYLGDWAYDAAIAINIAIAAVRRRIGLPYWSFSAWAKLQVKHAVNFIGEFQRVVADEARRNNVDGVICGHIHHAIMEDMDGIRYINTGDWVESCTAIAENADGSFELITWMQTSEATAEHASDEMEPVNIPGLIGKHAA", "soluble on expression in E. coli": "not soluble"}, {"sequence": "MAGTGHTPEEALALLKRGAEEIVPEEELLAKLKEGRPLTVKLGADPTRPDLHLGHAVVLRKMRQFQELGHKVVLIIGDFTGMIGDPSGRSKTRPPLTLEETRENAKTYVAQAGKILRQEPHLFELRYNSEWLEGLTFKEVVRLTSLMTVAQMLEREDFKKRYEAGIPISLHELLYPFAQAYDSVAIRADVEMGGTDQRFNLLVGREVQRAYGQSPQVCFLMPLLVGLDGREKMSKSLDNYIGLTEPPEAMFKKLMRVPDPLLPSYFRLLTDLEEEEIEALLKAGPVPAHRVLARLLTAAYALPQIPPRIDRAFYESLGYAWEAFGRDKEAGPEEVRRAEARYDEVAKGGIPEEIPEVTIPASELKEGRIWVARLFTLAGLTPSNAEARRLIQNRGLRLDGEVLTDPMLQVDLSRPRILQRGKDRFVRVRLSD", "soluble on expression in E. coli": "soluble"}, {"sequence": "MAGWVNPSFDREKLRSVIDSAERVLSERDKAREEAIRLARDVVRYSGWAVTAVHKGSLEEAEGHLARAEEAAGMLRSILEPYPDLMTAGFANNAFSEYVEARLFIDIITGRGLSSPDELRVPIVPYIQGLGDLVGELRRLSLELVRRGEFRKAWSLLDIMEAIYLELRSLDYPEALLPGVRHKADVARRLVDDTKAMLADLESRSQLEYRLKEVLKRLEA", "soluble on expression in E. coli": "soluble"}, {"sequence": "MAHAPARCPSARGSGDGEMGKPRNVALITGITGQDGSYLAEFLLEKGYEVHGIVRRSSSFNTGRIEHLYKNPQAHIEGNMKLHYGDLTDSTCLVKIINEVKPTEIYNLGAQSHVKISFDLAEYTADVDGVGTLRLLDAVKTCGLINSVKFYQASTSELYGKVQEIPQKETTPFYPRSPYGAAKLYAYWIVVNFREAYNLFAVNGILFNHESPRRGANFVTRKISRSVAKIYLGQLECFSLGNLDAKRDWGHAKDYVEAMWLMLQNDEPEDFVIATGEVHSVREFVEKSFLHIGKTIVWEGKNENEVGRCKETGKVHVTVDLKYYRPTEVDFLQGDCTKAKQKLNWKPRVAFDELVREMVHADVELMRTNPNA", "soluble on expression in E. coli": "not soluble"}, {"sequence": "MAHELQLIKQSSGILIPATPETSEILQSKIKLGAVLVAEFRQVRNPAFHRRFFALLNLGFEYWEPTGGAISANERKLVNGYAKFLAAYGGNESALLDAAEQYLEQIANRRVTNGISLCKSFDAYRAWVTVEAGHYDAIQLPDGTLRKHPRSIAFSSMDEVEFQQLYKSALDVLWRWILSRTFRTQREAENAAAQLMSWAG", "soluble on expression in E. coli": "not soluble"}, {"sequence": "MAHHHHHHMACDDSTKRNAAAVNRLLQKTRAATAPNSQWLNSITRREDGTLSNELHLSNQQRLACEMGVFPKGHFGDVEIEEENPQRSCHALAQRRARHEWKTDEEAKRRLQIGRGEVCNKRELRAAARREAAILRYEMTLPRRRVVGHLSHLMPAQADASLAVPTEGAADALVEKGCGRWVLHNSYRQQLLHGEPVMTRIMRGEFYETKPPPQRKKKVWAAGKRHVRMTSEVNRLMNTGGWCR", "soluble on expression in E. coli": "not soluble"}, {"sequence": "MAHHHHHHMAIVGDSLNKRRNYTVCGLVSNPLFQKCAEVAQYVAEEYSDEFYVDIFREMPCEFYSRREQLLNSKKIEDGGMEVIVLVGADGHTGPTNGEGEAMSGDDFLNMMQKATCFRVLNIPPERPDSYENMAHLSWKNYLRERGNTYCWMEISIGEMVHGRVTFELYSRVVPHTCSNFWHLCKGDLSRDADEGEEQVPILSYKNSTFFRTLHGAWVMGGDISGGNGRGGYSIYGRYFPNESYAIPHDRVGVLGMCNDGGDTNASSFYITMKAMQWMNGRYVAFGRVVDGLEVVHAIHAVDVKHNQCPKKVITISDCGVIDLTE", "soluble on expression in E. coli": "not soluble"}, {"sequence": "MAHHHHHHMASLMGFLTVSKISEPPKASVAQEAFDYIYERIAAPAEVDVERFLEIGHFESLATATCLSLEDLSLYLFAFAVDESAKRIYKISEKHFVAWMAGLISKLPRNAAPPTRENAYAPLFAAAHDAIVDLNNTIRSNEEKRSKFYQFLYNWCLKGNDASDRVDSAKELWSCFFSASPVSLTVEEARRKFTAYVCFPRINQWLDFITMLGEKATESKSGRVAVEQSGVSFDTWTQLLLFARFDNYDAYDDEDSWPVTMDDFVVYVRKLEESKKV", "soluble on expression in E. coli": "not soluble"}, {"sequence": "MAHHHHHHMASSSDADGKEVGSSGEGNRATGGKWRRPSLAQQRARRAQLPPAFDVVHWNDEDISRGHLLRVLHRDTFVVLDYHRQARMLTEEGNKAERVVSVMLPAVYTARFLAVLEGRSEKVEVHSRYTNATFTPNPAAPYTFTLKCTSTRPAQQKQQVAGEEGDETFEWTVEFDVAESLMLQRFLTQALHYNTGFARTSV", "soluble on expression in E. coli": "soluble"}, {"sequence": "MAHHHHHHMATAKELGPGGLREDGRPIFIATDHTKFTPSTKQELTDQQKLAWKSFQLWRTTLGIERRDNVYKTLTNSDYTNFRLGTHILGTPYPVIETVPGFFDVFKAVRWYEHAISLAVALGYGYWIRSKASTRYSRMMPMSRTSITMLTFISTDLCFCYRSMYRLTGYLPNEYECFKYGVLEDKDKLQRKKELWEKYANHKREWCRRYDYHVYGIRPGETFSFFSACMIPSWEPRYNTRTDYPPRKNPYFLTSTPLRDTFLESPFTYEIPKDETVPLVRERPELKYLYRGPGRTTPPSDEK", "soluble on expression in E. coli": "not soluble"}, {"sequence": "MAHHHHHHMDALIGQLENVEPDNILKSAEEFRNDKSDVKVNLSIGVCCDENGQLHIFKSVLEAEKLVQQRYKEKPYMLSNGTKQFSLLTQKLIFGENSKYLKEKKICTVQAIGGTGAICIALQLFKMLHIREICVTNKPYVNHVNMITSNGIKVKYISFFEEKLVNINYDAFLNDLRKLEDGSVLLLQVSCYNPCSTNIEEIYFDEIANIVWKKKHVIVFDIAYQGFGSSNMNDDVSLVKKFEERGISFVVCQSFSKNMSLYGERAGALHIVCKSKEERKIVANNLRVITRKFYSSPTIHTNRIVCQLLEDEKLKSEWISDLRELSERVHKNRVLFFEKMEFYQKKFDLHYDWSVYKKQRGIFSFVPMFSAIYRKLKEHHVYIIDNGRINVSGITARNVDYVAEKVCLSLAEVKRCG", "soluble on expression in E. coli": "not soluble"}, {"sequence": "MAHHHHHHMDSMPPLSSPCLVEQEARQVPAGCFTRAVYALHSTDNEQTETAALTVRKLIKEEDQGMMRGAASSQIPLKRKGSKTNSAKSKYGKSGKLGRSSVVSWNLKSAPKITKAAGVTSANNNENREYVSPIVWCPVTPLMDNIYRSKWRQPMGRASSQAIDNEKNICIDETNVGENDLCMCKDVEAQFVLRGGERIYTLHYVTPLSMKRRETNEENSMCYGVLPVIRICVNPPVTP", "soluble on expression in E. coli": "not soluble"}, {"sequence": "MAHHHHHHMDVSRRLAGENHDFRRSTQVPALCTKPQGGKGMRLNVLHEGAVPANDFHSAHLTPYEMDEIKGYSEVYYVGQNCDRKVQAPVEGGHNKGYDDERGDYLIRLRDHIAYRYEVLSTLGSGSFGQVVKAVDHCKNCTVALKIIRNRKRFTAQAKIEVQILSHLKKGDPSGIYGIVQMIDNFTFRSHVCITYELLGCNLYTYLKQRRFKPLPLDVVRKIGAGVLVSLSYMWRENIIHCDLKPENILLRSPNDTAVKVIDLGSSCFENARLFTYIQSRFYRAPEVLLGCPYSRCIDLWSYGCVLCELASGYPIFPGESEQEQMACIMEFLGTPPRDFILRSPRKHEFFEASANYSPKLVPNSKLKIRFPGTKNIAAFLGLPEGDPFVSFVKLFLEWVPDSRATPRRAMKHPWIADEVNELLSKQKRNTAATGEDDSESKFHKALPRLPKIGK", "soluble on expression in E. coli": "not soluble"}, {"sequence": "MAHHHHHHMDYCEEAYNKLIEFLSENKTEKMMESSLSSALAVALCYNHRIVNMYENMKGRIFLLDISNETYVYTNQYTQLMNIAYNAKRNNIIIDVFSLNCKIQLLEQICNITNGLYIDSSIFFNVNCTDNIEDVLTQTMIFWFLPSNNTRKYFSNTYLNDDTNIAVCSCHNKQVDIAYICSCCLAIYCSEKDEKTNKERTSCFVCKTRFTKALLRNKVVSDLDFSSI", "soluble on expression in E. coli": "not soluble"}, {"sequence": "MAHHHHHHMEAGARFPAAATPPASAGAAAVQGDAESEPDDERWSLSDGEPEAIPAKNGEPSDADVDAAMAAKGEAAELHGEGKQEEAIAKMGEALAYNPGNAMYWGMRALYHLEFNKPRAALHDANKALELNPQNVRALRVRGTVNRHLGHWEDSLKDLSAAQAIDYDDKTNETLKYVQSRATQRHKRQLARHHAEEEAAARRQEELRRQRQREAEEAAAAAEAQAAPGSMPGGLPRGFPGGMPGGMPGGMPGGMPPGMESVLQDPEIMVAMQDPEVAPKLAQMMQNPMAAMSMMNDPKVGPVMQKIMAKMMGGGGMPGGMGGMGGMGGFQGAGGMPSHRGAADGASGSTRRDDLD", "soluble on expression in E. coli": "not soluble"}, {"sequence": "MAHHHHHHMEASAPGKVLILGSYLIVESCTPANVGISIGVNARFTTRIVKAEPTTTGASGKTTIHMRSPQFRQSFCFVANTSAPGTVAVKQTEGPGSPFIFNAVLYSVAAAQSLGSSTDGEIWVELLADNDFYSQRNYLESQGKDVNVANLRSLPPHLPLVGAISKTGLGSSAAMTTSIVACLCHHFNADGCSHEYVHRIAQIAHSVTQGKIGSGFDVYTAVYGTCAYRRFPVSRVSMMMMASAQPPSSVEVETLRRCVDMNEVWVPPESFRLPPGVKLVLGDVHQGGSCTPGMVAKIMAWRKSVADTPDNLWEQLRRNNEAYIAALRRMIDEAAAKPDVYAASMAALQQVPSLPLFRADGESMQCIVEASRFAARSRALLRDMGVAAEVKVEPVELTDLLDDTATLPGVFAVGCPGAGGYDAVFALVLGDECAAAVEAFWEHYTKMNVCPLLVREDPSGLLIQPPP", "soluble on expression in E. coli": "soluble"}, {"sequence": "MAHHHHHHMEDKLDFTKLRDPFDMDEINRKLQEKVADDDPVQKAMPDPMDPKFRAPLRCSACGAVIEHAVRLLRPIIERQSERAARSGGVLPADALPKEYEMVDIFENLCGEVGRLYGLEVEKDKKRPTLRFSKSFGVSRLQGAWMPSFLTSTCEGVLDVEGEEKLAAMILGVARSEAEAGRGKVISMNPDQGIVDKVREMVCTKWEESAKGCDAYGVAIDPRETDNDDGAEEAASDL", "soluble on expression in E. coli": "not soluble"}]}]}
